Measured values published in patent US20110294748A1 (Janssen / Centocor, published 2011).
Ends that are not written are not given here.

B1: PG-peptide fusion of clone 12 (protein G IgG domain with peptide SEQ ID NO: 8 at its C-terminus) (other)
chain: YKLILNGKTLKGETTTEAVDAATAEKVFKQYANDNGVDGEWTYDDATKTFTVTESNCPPLDMRLTELCVM
notes: also called PG-peptide fusion clone 12
B2: PG-peptide fusion of clone 14 (protein G IgG domain with peptide SEQ ID NO: 10 at its C-terminus) (other)
chain: YKLILNGKTLKGETTTEAVDAATAEKVFKQYANDNGVDGEWTYDDATKTFTVTEVECDTPSITFSPGLEALFWNTCSP
notes: also called PG-peptide fusion clone 14
B3: PG-peptide fusion of clone 7 (protein G IgG domain with peptide SEQ ID NO: 3 at its C-terminus) (other)
chain: YKLILNGKTLKGETTTEAVDAATAEKVFKQYANDNGVDGEWTYDDATKTFTVTEPFCYSGGPLPYPCTY
notes: also called PG-peptide fusion clone 7
B4: PG-peptide fusion of clone 11 (protein G IgG domain with peptide SEQ ID NO: 7 at its C-terminus) (other)
chain: YKLILNGKTLKGETTTEAVDAATAEKVFKQYANDNGVDGEWTYDDATKTFTVTEHTCFYPTLMPPELCFD
notes: also called PG-peptide fusion clone 11
B5: PG-peptide fusion of clone 9 (protein G IgG domain with peptide SEQ ID NO: 5 at its C-terminus) (other)
chain: YKLILNGKTLKGETTTEAVDAATAEKVFKQYANDNGVDGEWTYDDATKTFTVTEFTCAVYSLSELDCRD
notes: also called PG-peptide fusion clone 9
B6: PG-peptide fusion of clone 8 (protein G IgG domain with peptide SEQ ID NO: 4 at its C-terminus) (other)
chain: YKLILNGKTLKGETTTEAVDAATAEKVFKQYANDNGVDGEWTYDDATKTFTVTEPVCPSFCYDQYVCPT
notes: also called PG-peptide fusion clone 8
B7: PG-peptide fusion of clone 6 (protein G IgG domain with peptide SEQ ID NO: 2 at its C-terminus) (other)
chain: YKLILNGKTLKGETTTEAVDAATAEKVFKQYANDNGVDGEWTYDDATKTFTVTEAECEWPWLTLELCQS
notes: also called PG-peptide fusion clone 6
B8: PG-peptide fusion of clone 10 (protein G IgG domain with peptide SEQ ID NO: 6 at its C-terminus) (other)
chain: YKLILNGKTLKGETTTEAVDAATAEKVFKQYANDNGVDGEWTYDDATKTFTVTELSCYDPTLRTLYCHV
notes: also called PG-peptide fusion clone 10
B9: PG-peptide fusion of clone 16 (protein G IgG domain with peptide SEQ ID NO: 12 at its C-terminus) (other)
chain: YKLILNGKTLKGETTTEAVDAATAEKVFKQYANDNGVDGEWTYDDATKTFTVTEAGCPSPMPPVDPGFYSAIVQLCRE
notes: also called PG-peptide fusion clone 16
B10: PG-peptide fusion of clone 5 (protein G IgG domain with peptide SEQ ID NO: 1 at its C-terminus) (other)
chain: YKLILNGKTLKGETTTEAVDAATAEKVFKQYANDNGVDGEWTYDDATKTFTVTETGCDFPELCRGCHP
notes: also called PG-peptide fusion clone 5
B11: peptide-Alkaline phosphatase-His6 fusion protein of clone 5 (other)
chain: TGCDFPELCRGCHPTPEMPVLENRAAQGDITTPGGARRLTGDQTAALRDSLSDKPAKNIILLIGDGMGDSEITAARNYAEGAGGFFKGIDALPLTGQYTHYALNKKTGKPDYVTDSAASATAWSTGVKTYNGALGVDIHEKDHPTILEMAKAAGLATGNVSTAELQGATPAALVAHVTSRKCYGPSATSEKCPGNALEKGGKGSITEQLLNARADVTLGGGAKTFAETATAGEWQGKTLREQAQTRGYQLVSDAASLNSVTEANQQKPLLGLFADGNMPVRWLGPKATYHGNIDKPAVTCTPNPQRNDSVPTLAQMTDKAIELLSKNEKGFFLQVEGASIDKQNHAANPCGQIGETVDLDEAVQRALEFAKKEGNTLVIVTADHAHASQIVAPDTKAPGLTQALNTKDGAVMVMSYGNSEEDSQEHTGSQLRIAAYGPHAANVVGLTDQTDLFYTMKAALGLKVPGGSGGGSGGGSGGGSGTPEMPVLENRAAQGDITTPGGARRLTGDQTAALRDSLSDKPAKNIILLIGDGMGDSEITAARNYAEGAGGFFKGIDALPLTGQYTHYALNKKTGKPDYVTDSAASATAWSTGVKTYNGALGVDIHEKDHPTILEMAKAAGLATGNVSTAELQGATPAALVAHVTSRKCYGPSATSEKCPGNALEKGGKGSITEQLLNARADVTLGGGAKTFAETATAGEWQGKTLREQAQTRGYQLVSDAASLNSVTEANQQKPLLGLFADGNMPVRWLGPKATYHGNIDKPAVTCTPNPQRNDSVPTLAQMTDKAIELLSKNEKGFFLQVEGASIDKQNHAANPCGQIGETVDLDEAVQRALEFAKKEGNTLVIVTADHAHASQIVAPDTKAPGLTQALNTKDGAVMVMSYGNSEEDSQEHTGSQLRIAAYGPHAANVVGLTDQTDLFYTMKAALGLKVPGNSHHHHHH
notes: Tested as bacterial culture supernatant; also called peptide-AP fusion clone 5

What follows are binders tested against T1, soluble IGF1R (sIGF1R), extracellular domain of human insulin-like growth factor 1 receptor, carboxy-terminal … (human, UniProt P08069 31-932) (assay: ELISA, serially diluted PG-peptide fusion on coated sIGF1R, one site binding fit).
T1 construct: Bought from R&D Systems; GenBank NP-000866 is printed for the whole receptor; also called IFG1R
Method: Relative binding affinities of the PG-peptide fusions for sIGF1R were measured using ELISA. The Kds were determined using GraphPad Prism 4 software with a one site binding equation. 100 μl of 2 μg/ml sIGF1R(R&D Systems, Minneapolis, Minn.) in Dulbecco's Phosphate Buffer Saline (DPBS (−/−)) was coated onto a 96 well Black Maxisorp plates (Nunc, Rochester, N.Y.) overnight at 4° C. The plates were washed with TBST and the wells blocked with 200 μl/well Starting Block T20 (TBS) (Pierce, Rockford, Ill.) for 1 hr, room temperature with 300 rpm shaking. 75 μl/well of purified, serially diluted PG-peptide fusions, starting concentration 40 μM, was added into the wells and incubated for 1 h, room temperature with 300 rpm mixing; the volume was brought up to 100 μl with Starting Block T20. The plates were washed 3× with TBST and then probed with 100 μl/well Peroxidase labeled-Rabbit antibody (1:5000) (Rockland, Gilbertsville, Pa.), washed, and the signal was detected using 100 μl/well POD substrate (Roche, Indianapolis, Ind.). Chemiluminescence was detected using a Molecular Devices M5 plate reader.

Row | Binder | EC50 [nM]
1 | B1 | 1800
2 | B2 | 850
3 | B3 | 1800
4 | B4 | 1200
5 | B5 | 3500
6 | B6 | 1600
7 | B7 | 1000
8 | B8 | 4300
9 | B9 | 8200
10 | B10 | 750

The binders below were run against T1, soluble IGF1R (sIGF1R), extracellular … (assay: solid phase phage ELISA, phage lysate on coated sIGF1R).
Method: Total of 384 individual phage lysates from the panning were tested for binding specificity towards sIGF1R in a solid phase phage ELISA. Briefly, 100 μl/well of 5 μg/ml sIGF1R (R&D Systems, Minneapolis, Minn.) was bound to Black Maxisorp Plates (Nunc, Rochester, N.Y.), 25 μl of phage lysate added, and the reaction was detected using anti-M13-HRP antibody (EMD Biosciences, Gibbstown, N.J.) and POD substrate (Roche, Indianapolis, Ind.), and the signal detected using a TEKAN plate reader. […] Positive lysates were defined as clones with a sIGF1R specific signal that was three fold above the background of the negative control. A total of 13 clones with unique peptide sequences were obtained with confirmed binding to the sIGF1R (Table 1). From these 13 clones, 3 (clones 5, 13 and 16) cross-reacted with the insulin receptor.

Row | Binder | binding result
11 | PFCYSGGPLPYPCTY (peptide, not shown: large carriers, cysteine pairing not given here; also: displayed on phage pIX, Tested as phage lysate) [phage clone 7 (peptide SEQ ID NO: 3 displayed on pIX phage)] | binds
12 | PVCPSFCYDQYVCPT (peptide, not shown: large carriers, cysteine pairing not given here; also: displayed on phage pIX, Tested as phage lysate) [phage clone 8 (peptide SEQ ID NO: 4 displayed on pIX phage)] | binds
13 | SNCPPLDMRLTELCVM (peptide, not shown: large carriers, cysteine pairing not given here; also: displayed on phage pIX, Tested as phage lysate) [phage clone 12 (peptide SEQ ID NO: 8 displayed on pIX phage)] | binds
14 | FTCAVYSLSELDCRD (peptide, not shown: large carriers, cysteine pairing not given here; also: displayed on phage pIX, Tested as phage lysate) [phage clone 9 (peptide SEQ ID NO: 5 displayed on pIX phage)] | binds
15 | TGCDFPELCRGCHP (peptide, not shown: large carriers, cysteine pairing not given here; also: displayed on phage pIX, Tested as phage lysate) [phage clone 5 (peptide SEQ ID NO: 1 displayed on pIX phage)] | binds
16 | HTCFYPTLMPPELCFD (peptide, not shown: large carriers, cysteine pairing not given here; also: displayed on phage pIX, Tested as phage lysate) [phage clone 11 (peptide SEQ ID NO: 7 displayed on pIX phage)] | binds
17 | LSCYDPTLRTLYCHV (peptide, not shown: large carriers, cysteine pairing not given here; also: displayed on phage pIX, Tested as phage lysate) [phage clone 10 (peptide SEQ ID NO: 6 displayed on pIX phage)] | binds
18 | VECDTPSITFSPGLEALFWNTCSP (peptide, not shown: large carriers, cysteine pairing not given here; also: displayed on phage pIX, Tested as phage lysate) [phage clone 14 (peptide SEQ ID NO: 10 displayed on pIX phage)] | binds
19 | AGCPSPMPPVDPGFYSAIVQLCRE (peptide, not shown: large carriers, cysteine pairing not given here; also: displayed on phage pIX, Tested as phage lysate) [phage clone 16 (peptide SEQ ID NO: 12 displayed on pIX phage)] | binds
20 | DDIDEFLHQLHNLVNNVH (peptide, not shown: large carriers, Tested as phage lysate) [phage clone 17 (peptide SEQ ID NO: 13 displayed on pIX phage)] | binds
21 | AECEWPWLTLELCQS (peptide, not shown: large carriers, cysteine pairing not given here; also: displayed on phage pIX, Tested as phage lysate) [phage clone 6 (peptide SEQ ID NO: 2 displayed on pIX phage)] | binds

These binders were tested against T1, soluble IGF1R (sIGF1R), extracellular … (assay: ELISA, culture supernatant on 2 µg/ml coated sIGF1R, Attophos detection).
Method: The binding of purified peptide-AP fusion proteins to sIGF1R was assessed using ELISA against immobilized sIGF1R. Briefly, bacteria transformed with each peptide-AP fusion expression vector were grown overnight and the following day the cultures were clarified by centrifugation at 4,500 rpm, 4° C. The supernatants were collected and 75 μl of each supernatant was assayed for binding to 2 μg/ml sIGF1R immobilized on ELISA plates. The bound peptides were detected using the Attophos Substrate (Roche, Indianapolis, Ind.) following the manufacturer's recommendation and read using a Molecular Devices M5 plate reader.

Row | Binder | binding result
22 | B11 | binds
